Biological target: T1, green fluorescent protein (Aequorea victoria, engineered EGFP-type …)
T1 construct: green fluorescent protein; pI 5.4; also called GFP; GFP-wt; source: produced by the authors; expression and purification in the Supplementary Methods
Experiment: SPR; αGFP nanobody variants and GFP; constants in Table S1; format and conditions not shown
Conditions: both partners purified

B1: αGFP-S54C (VHH)
VHH: QVQLVESGGALVQPGGSLRLSCAASGFPVNRYSMRWYRQAPGKEREWVAGMSCAGDRSSYEDSVKGRFTISRDDARNTVYLQMNSLKPEDTAVYYCNVNVGFEYWGQGTQVTVSS
notes: as the chain of m1 (nanobody chain of PDB 3OGO) with S54C; In the functional rows it carries linker 3c-rho on C54 (PEABS αGFP-S54-3c-rho); also called cysteine mutant; αGFP-S54C nanobody; source: bacterial expression vector, expressed and purified
In the case of B1, the “fold reduction of affinity against the wild type” value is reported as 25 fold.
